B1: Membrane-associated guanylate kinase, WW and PDZ domain-containing protein 2, residues 601 to 682; numbered along this chain, Q86UL8 (parent)
chain: AELMTLTIVKGAQGFGFTIADSPTGQRVKQILDIQGCPGLCEGDLIVEINQQNVQNLSHTEVVDILKDCPIGSETSLIIHRG

± gives the uncertainty stated by the source.

In the series the parent is B1. As to the kind of experiment: abundance fitness (aPCA) (normalised: wild type 0, dead -1); higher = more abundant; growth selection in yeast, the domain comes from the species named. As to conditions: Homo sapiens.
On to G72M, for which the abundance fitness is 0.059 ± 0.089.
In the case of G72W it was -0.243 ± 0.1.
As to L6K, the abundance fitness was -0.098 ± 0.044.
The same measure for L6N: -0.166 ± 0.074; for L6C: 0.038 ± 0.053; for L6F: 0.003 ± 0.091.
In the case of L6M it was -0.059 ± 0.049; in that of L6I, 0.008 ± 0.061; in that of K67L, -0.083 ± 0.097.
For the variant K67W, the abundance fitness was -0.224 ± 0.24.
On to K67S, for which the abundance fitness stood at 0.004 ± 0.083.
In the case of K67F it was -0.062 ± 0.31.
On to I8F, for which the abundance fitness is 0.046 ± 0.074.
Regarding I8Q, the abundance fitness was -0.08 ± 0.043.
In the case of I8H it was -0.113 ± 0.078; in that of I8A, -0.021 ± 0.038.
In the case of I8L it was 0.036 ± 0.036; in that of I8P, -0.09 ± 0.046; in that of I8G, -0.084 ± 0.027.
The same measure for I8R: -0.397 ± 0.033.
In the case of I78G, the abundance fitness was -0.075 ± 0.068.
Consider I78W, for which the abundance fitness was -0.129 ± 0.089.
The same measure for I78K: -0.122 ± 0.1.
For the variant I78F, the abundance fitness is -0.035 ± 0.27.
The same measure for I78L: -0.053 ± 0.097; for I78T: -0.224 ± 0.15; for S22Q: 0.023 ± 0.1.
The same measure for S22C: -0.117 ± 0.2; for S22K: 0.062 ± 0.2.
The same measure for S22T: -0.076 ± 0.11; for S22F: -0.105 ± 0.094.
Regarding C69G, the abundance fitness is -0.059 ± 0.061.
The same measure for C69Y: -0.174 ± 0.12; for C69A: -0.029 ± 0.07; for C69Q: -0.125 ± 0.13.
Consider T7I, for which the abundance fitness is -0.013 ± 0.064.
In the case of T7V it was -0.126 ± 0.038; in that of T7G, -0.168 ± 0.03.
In the case of T7A it was -0.008 ± 0.035; in that of T7Y, -0.121 ± 0.075.
For G11C, the abundance fitness was -0.146 ± 0.068.
In the case of G11Y, the abundance fitness was -0.124 ± 0.082.
The same measure for G11S: -0.023 ± 0.041.
On to G11W, for which the abundance fitness is -0.223 ± 0.054.
In the case of D21A it was -0.126 ± 0.087; in that of P23H, -0.303 ± 0.16; in that of P23Y, -0.16 ± 0.13.
In the case of P23F it was -0.106 ± 0.091; in that of L66A, -0.571 ± 0.12.
Turning to L66E, the abundance fitness was -0.522 ± 0.33.
The same measure for L32N: -0.124 ± 0.29; for L32R: -0.069 ± 0.082.
The same measure for L32K: -0.295 ± 0.12; for L32I: -0.057 ± 0.13; for L32C: -0.197 ± 0.18.
The same measure for I65Q: -0.079 ± 0.047; for I65C: -0.053 ± 0.063; for I65F: -0.088 ± 0.074.
Consider I65D, for which the abundance fitness is -0.542 ± 0.13.
The same measure for I65T: -0.038 ± 0.048.
In the case of I65L, the abundance fitness is -0.072 ± 0.037.
Regarding I34K, the abundance fitness is -0.007 ± 0.076.
For I34T, the abundance fitness is -0.072 ± 0.067.
In the case of I34M it was -0.061 ± 0.066.
In the case of I34E it was -0.045 ± 0.07.
With I34P, the abundance fitness was -0.072 ± 0.068.
In the case of I34F it was -0.066 ± 0.17; in that of I34H, -0.153 ± 0.092.
Regarding P38Q, the abundance fitness is -0.121 ± 0.14.
Consider P38W, for which the abundance fitness was -0.09 ± 0.15.
In the case of G14Q it was -0.052 ± 0.051; in that of T75Q, -0.148 ± 0.14; in that of T75I, -0.101 ± 0.4.
In the case of M4E it was -0.106 ± 0.044.
In the case of M4H it was -0.026 ± 0.065; in that of M4A, -0.1 ± 0.034.
M4N: the abundance fitness is -0.063 ± 0.076.
The same measure for M4V: -0.039 ± 0.031; for M4D: -0.013 ± 0.056; for N56Q: -0.099 ± 0.12.
In the case of N56S it was -0.053 ± 0.1; in that of N56K, -0.046 ± 0.095.
The same measure for N56G: 0.003 ± 0.079; for N56L: -0.051 ± 0.069.
In the case of N56V, the abundance fitness is -0.128 ± 0.094.
The same measure for E61D: -0.005 ± 0.37; for E61C: -0.039 ± 0.11.
In the case of E61H, the abundance fitness is -0.051 ± 0.15.
In the case of E61I it was -0.409 ± 0.32.
For the variant E61L, the abundance fitness is -0.046 ± 0.071.
The same measure for E61A: -0.151 ± 0.094; for E61T: -0.289 ± 0.14; for K10I: -0.185 ± 0.077.
In the case of K10T it was -0.182 ± 0.042.
The same measure for K10E: -0.662 ± 0.053; for K10S: -0.143 ± 0.037.
K10A: the abundance fitness is -0.108 ± 0.038.
Consider K10Q, for which the abundance fitness is -0.123 ± 0.042.
With N53Q, the abundance fitness is -0.025 ± 0.042.
In the case of N53W it was -0.201 ± 0.049.
Turning to N53M, the abundance fitness was -0.043 ± 0.05.
With N53P, the abundance fitness is -0.001 ± 0.034.
In the case of N53A it was -0.097 ± 0.034; in that of N53I, -0.076 ± 0.04; in that of N53T, -0.042 ± 0.035.
The same measure for E42I: -0.087 ± 0.089.
In the case of E42R it was -0.1 ± 0.052; in that of E42H, -0.23 ± 0.2; in that of E42W, -0.171 ± 0.064.
Consider P70H, for which the abundance fitness is -0.107 ± 0.11.
In the case of P70D it was 0.077 ± 0.29; in that of P70G, -0.185 ± 0.076; in that of P70M, -0.098 ± 0.12.
In the case of V63M it was 0.041 ± 0.11; in that of V63G, -0.067 ± 0.074.
The same measure for V63C: -0.192 ± 0.15; for V63F: -0.432 ± 0.38.
In the case of V63E, the abundance fitness was -0.028 ± 0.12.
As to Q13I, the abundance fitness is -0.218 ± 0.05.
Regarding Q13T, the abundance fitness is -0.038 ± 0.036.
The same measure for Q13E: 0.016 ± 0.046; for Q13R: -0.017 ± 0.033.
The same measure for Q13A: -0.037 ± 0.039; for D68P: -0.233 ± 0.26; for D68I: -0.271 ± 0.18.
The same measure for D68Y: 0.011 ± 0.24.
On to D68L, for which the abundance fitness was -0.138 ± 0.086.
In the case of V54E it was -0.906 ± 0.16; in that of V54R, -0.939 ± 0.082; in that of V54I, -0.07 ± 0.04.
As for V54G, the abundance fitness is -0.523 ± 0.049.
The same measure for V54K: -0.855 ± 0.1.
Regarding V54W, the abundance fitness is -0.779 ± 0.11.
Turning to V54Y, the abundance fitness was -1 ± 0.12.
The same measure for V9R: -0.052 ± 0.03; for V9Q: -0.071 ± 0.05.
On to V9E, for which the abundance fitness was -0.088 ± 0.035.
The same measure for Q52M: 0.01 ± 0.045.
On to Q52Y, for which the abundance fitness was -0.024 ± 0.05.
The same measure for Q52W: -0.095 ± 0.049; for Q52K: 0.049 ± 0.048; for V47F: 0.185 ± 0.38.
In the case of V47D it was -0.161 ± 0.33.
In the case of V47G it was -0.164 ± 0.063; in that of V47E, 0.004 ± 0.12; in that of V47A, 0.036 ± 0.082.
For the variant G36C, the abundance fitness was -0.044 ± 0.09.
The same measure for G36M: 0.04 ± 0.13; for G36E: 0.037 ± 0.17.
Turning to G36T, the abundance fitness amounted to 0.064 ± 0.21.
In the case of I79F it was -0.046 ± 0.17; in that of I79V, -0.102 ± 0.073; in that of I79Q, -0.73 ± 0.27.
The same measure for G43A: -0.086 ± 0.097.
The same measure for G43D: 0.023 ± 0.21; for G43V: -0.761 ± 0.24; for G43E: 0.059 ± 0.2.
Regarding G43Q, the abundance fitness was determined as 0.068 ± 0.14.
On to G43C, for which the abundance fitness was -0.187 ± 0.2.
In the case of A1F it was -0.589 ± 0.47; in that of A1E, -0.024 ± 0.11.
The same measure for A1V: 0.093 ± 0.063; for E74W: -0.069 ± 0.096; for E74H: 0.241 ± 0.47.
The same measure for E74P: 0.149 ± 0.12; for E74C: -0.322 ± 0.17; for E74K: -0.23 ± 0.34.

These data come from the Human Domainome abundance scans (Beltran et al. 2025).
